This note sets out measurements from patent US20150239980A1 (NEOTOPE BOSCIENCES, published 2015).

Some results are limits rather than exact numbers.

Experiment [1] deals with T1, recombinant hMCAM-His (human, UniProt P43121 24-559).
T1 construct: not shown: His tag
T1 chain: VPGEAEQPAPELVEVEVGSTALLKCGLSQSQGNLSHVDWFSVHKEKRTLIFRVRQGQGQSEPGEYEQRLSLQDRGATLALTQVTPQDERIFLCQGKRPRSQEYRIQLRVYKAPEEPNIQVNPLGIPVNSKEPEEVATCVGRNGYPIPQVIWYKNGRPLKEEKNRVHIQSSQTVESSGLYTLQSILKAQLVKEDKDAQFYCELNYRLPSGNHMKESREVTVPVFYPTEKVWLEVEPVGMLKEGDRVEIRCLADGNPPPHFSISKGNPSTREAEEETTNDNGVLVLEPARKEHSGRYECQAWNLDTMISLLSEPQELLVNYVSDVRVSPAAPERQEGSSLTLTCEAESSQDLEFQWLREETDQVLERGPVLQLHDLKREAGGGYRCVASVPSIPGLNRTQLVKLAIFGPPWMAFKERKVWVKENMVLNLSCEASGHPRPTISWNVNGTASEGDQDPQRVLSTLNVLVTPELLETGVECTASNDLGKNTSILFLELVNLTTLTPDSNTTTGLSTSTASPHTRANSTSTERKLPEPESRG
Briefly: summary of ForteBio, hMCAM-His; vs rodent 2120. The method, then: (§1) The affinities were measured using the ForteBio Octet Red. Anti-human Fc sensors were used to capture the humanized antibodies, and several concentrations of hMCAMHis analyte were used to determine the affinity using a 1:1 fitting model.

The target in experiment [2] is T1, recombinant hMCAM-His. Briefly: ForteBio Octet Red, hMCAM-His analyte; Forte column 1; vs rodent 2120. The procedure:
as §1
(In general: BLI is a label-free optical method that tracks binding on a fibre tip over time.)

Experiment [3] addresses T2, human MCAM (melanoma cell adhesion molecule) expressed on transfected CHO cells (human, UniProt P43121 24-646).
T2 construct: also called hMCAM; CD146
T2 chain: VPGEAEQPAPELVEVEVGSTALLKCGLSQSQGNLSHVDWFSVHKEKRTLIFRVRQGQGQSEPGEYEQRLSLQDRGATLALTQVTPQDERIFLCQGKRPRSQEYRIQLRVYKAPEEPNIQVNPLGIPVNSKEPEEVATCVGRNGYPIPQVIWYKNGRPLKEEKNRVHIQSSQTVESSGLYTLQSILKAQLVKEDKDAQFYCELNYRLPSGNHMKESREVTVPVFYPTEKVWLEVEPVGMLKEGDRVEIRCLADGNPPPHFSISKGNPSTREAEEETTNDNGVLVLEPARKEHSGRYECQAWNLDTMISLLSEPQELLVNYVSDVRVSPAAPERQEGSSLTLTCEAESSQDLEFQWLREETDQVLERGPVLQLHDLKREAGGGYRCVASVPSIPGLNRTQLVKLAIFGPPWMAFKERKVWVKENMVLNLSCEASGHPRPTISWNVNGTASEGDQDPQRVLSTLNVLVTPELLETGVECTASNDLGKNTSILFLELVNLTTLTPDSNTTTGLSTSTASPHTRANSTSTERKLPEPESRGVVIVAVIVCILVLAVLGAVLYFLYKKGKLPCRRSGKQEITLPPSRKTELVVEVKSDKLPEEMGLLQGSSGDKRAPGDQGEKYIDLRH
Briefly: laminin/FACS on hMCAM CHO cells, competitor laminin 411; Expt#1; vs rodent 2120. The procedure: (§2) Following incubation for 30-45 minutes, the cells were washed and anti-laminin conjugated to AF650 (NovusBio) was added to detect the bound laminin. The cells were run on a flow cytometer to measure the laminin binding signal.

The target in experiment [4] is T2, human MCAM (melanoma cell adhesion …). Briefly: laminin/FACS on hMCAM CHO cells, competitor laminin 411; Expt#2; vs rodent 2120. The procedure: as §2
The target in experiment [5] is T1, recombinant hMCAM-His. Briefly: competitive ELISA on hMCAM-His, competitor biotinylated rodent or chimeric 2120; vs rodent 2120. The method, then:
(§3) ELISA plates were coated with recombinant hMCAM-His, and blocked with casein buffer to prevent non-specific binding. Biotinylated rodent or chimeric antibody was added at a subsaturating concentration, in the presence or absence of 3× increasing concentrations of unlabeled competitor (humanized antibody, rodent, or chimeric). After washing to remove unbound antibody, streptavidin HRP was added to allow detection of the biotinylated antibody. The ELISA was developed with TMB substrate and the OD450 was measured. The IC50 of the unlabeled competitor was determined using the GraphPad Prism5 software.
On the technique in general: An ELISA detects its analyte on a solid surface through an enzyme-linked reagent.

Experiment [6] has as its target T1, recombinant hMCAM-His. Briefly: ForteBio Octet Red, hMCAM-His analyte; Forte column 1; vs rodent 2107. The method, then: as §1
In experiment [7] the target is T2, human MCAM (melanoma cell adhesion …). Briefly: laminin/FACS on hMCAM CHO cells, competitor laminin 411; Expt#1; vs rodent 2107. The procedure: as §2
The target in experiment [8] is T1, recombinant hMCAM-His. Briefly: competitive ELISA on hMCAM-His, competitor biotinylated rodent or chimeric 2107; vs rodent 2107. The procedure:
as §3

Experiment [9] concerns the target T2, human MCAM (melanoma cell adhesion …). Briefly: laminin/FACS on hMCAM CHO cells, competitor laminin 411; Expt#2; reference row with 1.0 is chimeric 2107. The procedure: as §2
For experiment [10], the target named is T1, recombinant hMCAM-His. Briefly: ForteBio Octet Red, hMCAM-His analyte; Forte column 2; vs rodent 2107. The procedure:
as §1

B1: h2120_VH1 + h2120_VL1 (antibody, human IgG1, V domains shown)
VH: QVTLKESGPVLVKPTETLTLTCTVSGFSLTSNGVSWVRQPPGKALEWIAAISSGGTTYYNSAFKSRLTISRDTSKSQVVLTMTNMDPVDTATYYCARRYGYGWYFDFWGQGTLVTVSS
VL: DIQMTQSPSSLSASVGDRVTITCKASQNIYNSLAWYQQKPGKAPKVLIFNANSLQTGIPSRFSGSGSGTDFTLTISSLQPEDFATYYCQQFYSGYTFGQGTKLEIK
As for B1, the “fold reduction in affinity as measured by ForteBio” value (“fold reduction in affinity” below) in experiment [1] was above 5 fold. Besides, the “fold over rodent (Forte affinity)” value in [2] stood at 8.8 fold. In addition, the “fold over rodent (blocking, laminin/FACS)” value stood at 2 fold in [3] and 3.5 fold in [4]. For the same molecule, in experiment [5], the “fold over rodent (competitive ELISA)” value came out at 3.1 fold.

B2: h2120_VH4 + h2120_VL3 (antibody, human IgG1, V domains shown)
VH: QVTLKESGPVLVKPTETLTLTCTVSGFSLTSQGVSWVRQPPGKALEWIAAISSGGTTYYNSAFKSRLTISRDTSKSQVVLTMTNMDPVDTATYYCARRYGYGWYFDFWGQGTLVTVSS
VL: DIQMTQSPSSLSASVGDRVTINCKASQNIYNSLAWYQQKPGKAPKVLIFNANSLQTGIPSRFSGSGSGTDFTLTISSLQPEDFATYYCQQFYSGYTFGQGTKLEIK
On to B2, for which the “fold reduction in affinity” value in experiment [1] is above 5 fold. Moreover, the “fold over rodent (Forte affinity)” value in experiment [2] was 17.4 fold. In addition, the “fold over rodent (blocking, laminin/FACS)” value in experiment [3] is 3.8 fold; in experiment [4], 5.6 fold. Also, the “fold over rodent (competitive ELISA)” value in experiment [5] amounted to 5 fold.

B3: h2120_VH1 + h2120_VL2 (antibody, human IgG1, V domains shown)
VH: QVTLKESGPVLVKPTETLTLTCTVSGFSLTSNGVSWVRQPPGKALEWIAAISSGGTTYYNSAFKSRLTISRDTSKSQVVLTMTNMDPVDTATYYCARRYGYGWYFDFWGQGTLVTVSS
VL: DIQMTQSPSSLSASVGDRVTITCKASQNIYNSLAWYQQKPGKAPKVLIFNANSLQTGVPSRFSGSGSGTDFTLTISSLQPEDFATYYCQQFYSGYTFGQGTKLEIK
Consider B3, for which the “fold reduction in affinity” value in [1] is above 5 fold. The “fold over rodent (Forte affinity)” value in experiment [2] turned out to be 10.8 fold. The “fold over rodent (blocking, laminin/FACS)” value was 4.6 fold in experiment [3] and 12.6 fold in experiment [4]. In addition, the “fold over rodent (competitive ELISA)” value in experiment [5] came to 3.1 fold.

B4: h2107_VH1 + h2107_VL1 (antibody, human IgG1, V domains shown)
VH: QVTLKESGPVLVKPTETLTLTCTVSGFSLTSNGVSWVRQPPGKALEWIAAISSGGSTYYNSAFKSRLTISRDTSKSQVVLTMTNMDPVDTATYYCARHRPFYFDYWGQGTLVTVSS
VL: DIQMTQSPSSLSASVGDRVTITCKGSQNIYKSLAWFQQKPGKVPKLLIYDANSLQTGIPSRFSGSGSGTDFTLTISSLQPEDVATYYCQQYYSGYTFGGGTKVEIK
For the molecule B4, the “fold over rodent (Forte affinity)” value in experiment [6] stood at 12.9 fold. The “fold over rodent (blocking, laminin/FACS)” value in [7] is 2.3 fold; in [9], 2.1 fold. For the same molecule, in experiment [8], the “fold over rodent (competitive ELISA)” value was 2.1 fold.

B5: h2107_VH5 + h2107_VL3 (antibody, human IgG1, V domains shown)
VH: QVTLKESGPVLVKPTETLTLTCTVSGFSLTSQGVSWVRQPPGKALEWIAAISSGGSTYYNSAFKSRLTISPDTSKSQVVLTMTNMDPVDTATYYCARHRPFYFDYWGQGTLVTVSS
VL: DIQMTQSPSSLSASVGDRVTINCKGSQNIYKSLAWFQQKPGKVPKLLIYDANSLQTGIPSRFSGSGSGTDFTLTISSLQPEDVATYYCQQYYSGYTFGGGTKVEIK
Regarding B5, in experiment [6], the “fold over rodent (Forte affinity)” value was 33.2 fold. Moreover, in [8], the “fold over rodent (competitive ELISA)” value worked out at 3.4 fold.

B6: h2107_VH5 + h2107_VL1 (antibody, human IgG1, V domains shown)
VH: QVTLKESGPVLVKPTETLTLTCTVSGFSLTSQGVSWVRQPPGKALEWIAAISSGGSTYYNSAFKSRLTISPDTSKSQVVLTMTNMDPVDTATYYCARHRPFYFDYWGQGTLVTVSS
VL: DIQMTQSPSSLSASVGDRVTITCKGSQNIYKSLAWFQQKPGKVPKLLIYDANSLQTGIPSRFSGSGSGTDFTLTISSLQPEDVATYYCQQYYSGYTFGGGTKVEIK
In the case of B6, the “fold over rodent (Forte affinity)” value in [6] came to 28.2 fold. Moreover, the “fold over rodent (competitive ELISA)” value in experiment [8] was determined as 3.7 fold.

B7: h2107_VH5 + h2107_VL2 (antibody, human IgG1, V domains shown)
VH: QVTLKESGPVLVKPTETLTLTCTVSGFSLTSQGVSWVRQPPGKALEWIAAISSGGSTYYNSAFKSRLTISPDTSKSQVVLTMTNMDPVDTATYYCARHRPFYFDYWGQGTLVTVSS
VL: DIQMTQSPSSLSASVGDRVTITCKGSQNIYKSLAWFQLKPGKVPKLLIYDANSLQTGIPSRFSGSGSGTDFTLTISSLQPEDVATYYCQQYYSGYTFGGGTKVEIK
B7: the entries for the “fold over rodent (Forte affinity)” value in experiment [6] and in experiment [10] were 5.9 fold and 6 fold, respectively. Also, the results for the “fold over rodent (blocking, laminin/FACS)” value in experiment [7] and in [9] were 1.6 fold and 1.5 fold, respectively. In experiment [8], the “fold over rodent (competitive ELISA)” value came out at 1.3 fold.

B8: h2107_VH1 + h2107_VL3 (antibody, human IgG1, V domains shown)
VH: QVTLKESGPVLVKPTETLTLTCTVSGFSLTSNGVSWVRQPPGKALEWIAAISSGGSTYYNSAFKSRLTISRDTSKSQVVLTMTNMDPVDTATYYCARHRPFYFDYWGQGTLVTVSS
VL: DIQMTQSPSSLSASVGDRVTINCKGSQNIYKSLAWFQQKPGKVPKLLIYDANSLQTGIPSRFSGSGSGTDFTLTISSLQPEDVATYYCQQYYSGYTFGGGTKVEIK
Regarding B8, in experiment [6], the “fold over rodent (Forte affinity)” value was 16.3 fold. The entries for the “fold over rodent (blocking, laminin/FACS)” value in experiment [7] and in experiment [9] were 2.6 fold and 2 fold, respectively. In addition, in [8], the “fold over rodent (competitive ELISA)” value is 2.3 fold.

B9: h2107_VH6 + h2107_VL1 (antibody, human IgG1, V domains shown)
VH: QVTLKESGPVLVKPTETLTLTCTVSGFSLTSNAVSWVRQPPGKALEWIAAISSGGSTYYNSAFKSRLTISRDTSKSQVVLTMTNMDPVDTATYYCARHRPFYFDYWGQGTLVTVSS
VL: DIQMTQSPSSLSASVGDRVTITCKGSQNIYKSLAWFQQKPGKVPKLLIYDANSLQTGIPSRFSGSGSGTDFTLTISSLQPEDVATYYCQQYYSGYTFGGGTKVEIK
Consider B9, for which the “fold over rodent (Forte affinity)” value in experiment [6] came to 36.8 fold. Also, the “fold over rodent (competitive ELISA)” value in experiment [8] stood at 15.3 fold.

B10: h2107_VH6 + h2107_VL3 (antibody, human IgG1, V domains shown)
VH: QVTLKESGPVLVKPTETLTLTCTVSGFSLTSNAVSWVRQPPGKALEWIAAISSGGSTYYNSAFKSRLTISRDTSKSQVVLTMTNMDPVDTATYYCARHRPFYFDYWGQGTLVTVSS
VL: DIQMTQSPSSLSASVGDRVTINCKGSQNIYKSLAWFQQKPGKVPKLLIYDANSLQTGIPSRFSGSGSGTDFTLTISSLQPEDVATYYCQQYYSGYTFGGGTKVEIK
For the molecule B10, in experiment [6], the “fold over rodent (Forte affinity)” value was 22.1 fold. Further, in experiment [8], the “fold over rodent (competitive ELISA)” value was 9.9 fold.
